Numbering of substitutions follows the chain as printed. Blank lines part the entries; values can stand above or below the binder they belong to.
Target: T1, Histidine-tagged human 4-1BB protein (h4-1BB-His) (human, UniProt Q07011 24-186)
T1 construct: not shown: histidine tag
Experiment: SPR (Biacore T200), antibody on Protein A chip, h4-1BB-His injected;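 further: dissociation phase followed for 300 s, Kd derived as koff divided by kon from the kinetic fit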

B1: 6A5-H2K2-IgG2 (antibody, V domains shown)
VH: QVQLVQSGAEVKKPGSSVKLSCKASGYTFSSYWINWVRQAPGQGLEWIGNIYPSDSYTNYNQKFKDRATLTVDKSTSTAYMELSSLRSEDTAVYYCTRTWEFYYDSVFDYWGQGTLVTVSS
VL: DIQMTQSPSSLSASLGERVTITCKASQDINSYLSWYQQKPGKAPKTLIYRANRLVDGVPSRFSGSGSGQDFTLTISSLQPEDIATYYCLQYDELPPTFGGGTKVEIK
notes: humanized
Kd: 0.28 nM
koff: 0.000652 s⁻¹
kon: 2.33e+06 M⁻¹ s⁻¹

B3: 5F9-H2K2-IgG4 (antibody, V domains shown)
VH: QVQLKESGPGLVKPSETLSLTCTVSGFSLTTYDISWVRQPPGKGLEWLGVIWTGGGTNYNSSFMSRVTISKDTSKNQVSLKLSSVTAADTAIYYCERVDYWGQGTTVTVSS
VL: DVVMTQSPLSLPVTLGQPASISCRSSQSLVHSNGNTYLHWFQQRPGQSPKLLIYKVSNRFSGVPDRFSGSGSGTAFTFKISRVEAEDVGVYYCSQNTHVPWTFGGGTKVEIK
notes: humanized
Kd: 13.4 nM
koff: 0.00261 s⁻¹
kon: 194000 M⁻¹ s⁻¹

B15: 1C4-H1K3-IgG4 (antibody, V domains shown)
VH: QVQMVQSGAEVKKPGASVKLSCKASGFTFSSSYINWLRQAPGQRLEWMGWIFAGTGGTYYNQKFTGRVTITRDTSASTAYMELSSLRSEDTAIYYCARHSPRATLFDFWGQGTTLTVSS
VL: EIVLTQSPATLSLSPGERATMSCRASSSVNHMHWYQQKPGFSPRAWIYATSNLASGIPARFSGSGSGTSFTLTISSLEPEDFATYYCQQWSSNPYTFGGGTKLEIK
notes: humanized
Kd: 21.8 nM
koff: 0.000623 s⁻¹
kon: 28500 M⁻¹ s⁻¹

B17: 1C4-H1K4-IgG4 (antibody, V domains shown)
VH: B15 VH
VL: B15 VL with L13A, A19V, K38R, F70Y, T71S
notes: humanized
Kd: 23.9 nM
koff: 0.000614 s⁻¹
kon: 25700 M⁻¹ s⁻¹

B18: 1C4-H4K2-IgG4 (antibody, V domains shown)
VH: B15 VH with V2G, A24T, R44S, M48I, G49A, V68A, T69Q, I70L, R72V
VL: B15 VL with M21L, F41Q, S42A, W46L
notes: humanized
Kd: 16.6 nM
koff: 0.00049 s⁻¹
kon: 29600 M⁻¹ s⁻¹

B19: 1C4-H4K4-IgG4 (antibody, V domains shown)
VH: B15 VH with V2G, A24T, R44S, M48I, G49A, V68A, T69Q, I70L, R72V
VL: B15 VL with L13A, A19V, K38R, F70Y, T71S
notes: humanized
Kd: 19.3 nM
koff: 0.00056 s⁻¹
kon: 29000 M⁻¹ s⁻¹

B20: 1C4-H2K2-IgG4 (antibody, V domains shown)
VH: B15 VH with R44S, M48I, T69Q
VL: B15 VL with M21L, F41Q, S42A, W46L
notes: humanized
Kd: 25.1 nM
koff: 0.000646 s⁻¹
kon: 25800 M⁻¹ s⁻¹

B21: 1C4-H2K4-IgG4 (antibody, V domains shown)
VH: B15 VH with R44S, M48I, T69Q
VL: B15 VL with L13A, A19V, K38R, F70Y, T71S
notes: humanized
Kd: 20.7 nM
koff: 0.000521 s⁻¹
kon: 25200 M⁻¹ s⁻¹

B22: 1C4-H2K1-IgG4 (antibody, V domains shown)
VH: B15 VH with R44S, M48I, T69Q
VL: B15 VL with M21L, F41Q, S42A, W46L, T84V
notes: humanized
Kd: 19.4 nM
koff: 0.000502 s⁻¹
kon: 25900 M⁻¹ s⁻¹

B23: 1C4-H4K3-IgG4 (antibody, V domains shown)
VH: B15 VH with V2G, A24T, R44S, M48I, G49A, V68A, T69Q, I70L, R72V
VL: B15 VL
notes: humanized
Kd: 16.9 nM
koff: 0.000556 s⁻¹
kon: 32900 M⁻¹ s⁻¹

B25: 1C4-H3K3-IgG4 (antibody, V domains shown)
VH: B15 VH with R44S, M48I, V68A, T69Q
VL: B15 VL
notes: humanized
Kd: 17.1 nM
koff: 0.000533 s⁻¹
kon: 31200 M⁻¹ s⁻¹

B26: 1C4-H4K1-IgG4 (antibody, V domains shown)
VH: B15 VH with V2G, A24T, R44S, M48I, G49A, V68A, T69Q, I70L, R72V
VL: B15 VL with M21L, F41Q, S42A, W46L, T84V
notes: humanized
Kd: 18.2 nM
koff: 0.000516 s⁻¹
kon: 28400 M⁻¹ s⁻¹

The remaining binders from weak to strong by Kd, led by results:

Kd: 16.3 nM
koff: 0.000453 s⁻¹
kon: 27700 M⁻¹ s⁻¹
B16: 1C4-H3K2-IgG4 (antibody, V domains shown)
VH: B15 VH with R44S, M48I, V68A, T69Q
VL: B15 VL with M21L, F41Q, S42A, W46L
notes: humanized

Kd: 15.9 nM
koff: 0.000476 s⁻¹
kon: 30000 M⁻¹ s⁻¹
B24: 1C4-H3K4-IgG4 (antibody, V domains shown)
VH: B15 VH with R44S, M48I, V68A, T69Q
VL: B15 VL with L13A, A19V, K38R, F70Y, T71S
notes: humanized

Kd: 13.7 nM
koff: 0.00258 s⁻¹
kon: 188000 M⁻¹ s⁻¹
B8: 5F9-H3K2-IgG4 (antibody, V domains shown)
VH: B3 VH with L20I, T73N, V107L
VL: B3 VL
notes: humanized

Kd: 12.4 nM
koff: 0.00269 s⁻¹
kon: 216000 M⁻¹ s⁻¹
B7: 5F9-H2K4-IgG4 (antibody, V domains shown)
VH: B3 VH
VL: B3 VL with Q17D, F41Y, Q42L, V109L
notes: humanized

Kd: 12.2 nM
koff: 0.00242 s⁻¹
kon: 198000 M⁻¹ s⁻¹
B13: 5F9-H3K1-IgG4 (antibody, V domains shown)
VH: B3 VH with L20I, T73N, V107L
VL: B3 VL with K50R
notes: humanized

Kd: 12 nM
koff: 0.00247 s⁻¹
kon: 205000 M⁻¹ s⁻¹
B11: 5F9-H1K2-IgG4 (antibody, V domains shown)
VH: B3 VH with K5Q, L48I, I92V
VL: B3 VL
notes: humanized; also called 30-5F9-H1K2-IgG4

Kd: 11.4 nM
koff: 0.00253 s⁻¹
kon: 222000 M⁻¹ s⁻¹
B5: 5F9-H1K1-IgG4 (antibody, V domains shown)
VH: B3 VH with K5Q, L48I, I92V
VL: B3 VL with K50R
notes: humanized

Kd: 11.4 nM
koff: 0.0027 s⁻¹
kon: 236000 M⁻¹ s⁻¹
B6: 5F9-H3K4-IgG4 (antibody, V domains shown)
VH: B3 VH with L20I, T73N, V107L
VL: B3 VL with Q17D, F41Y, Q42L, V109L
notes: humanized

Kd: 11.2 nM
koff: 0.00225 s⁻¹
kon: 202000 M⁻¹ s⁻¹
B14: 5F9-H2K1-IgG4 (antibody, V domains shown)
VH: B3 VH
VL: B3 VL with K50R
notes: humanized

Kd: 10.5 nM
koff: 0.0022 s⁻¹
kon: 210000 M⁻¹ s⁻¹
B12: 5F9-H3K3-IgG4 (antibody, V domains shown)
VH: B3 VH with L20I, T73N, V107L
VL: B3 VL with F41Y, V109L
notes: humanized

Kd: 10.1 nM
koff: 0.00208 s⁻¹
kon: 206000 M⁻¹ s⁻¹
B9: 5F9-H1K3-IgG4 (antibody, V domains shown)
VH: B3 VH with K5Q, L48I, I92V
VL: B3 VL with F41Y, V109L
notes: humanized

Kd: 9.95 nM
koff: 0.00244 s⁻¹
kon: 246000 M⁻¹ s⁻¹
B4: 5F9-H1K4-IgG4 (antibody, V domains shown)
VH: B3 VH with K5Q, L48I, I92V
VL: B3 VL with Q17D, F41Y, Q42L, V109L
notes: humanized

Kd: 9.81 nM
koff: 0.00207 s⁻¹
kon: 212000 M⁻¹ s⁻¹
B10: 5F9-H2K3-IgG4 (antibody, V domains shown)
VH: B3 VH
VL: B3 VL with F41Y, V109L
notes: humanized

Kd: 1.17 nM
B2: 6A5-H1K1-IgG2 (antibody, V domains shown)
VH: B1 VH with I48M, A68V
VL: B1 VL with T46L
notes: humanized
